This is an account of results in patent publication US11306156.

Assay [1] deals with Cetuximab light chain V133G_N137K_S174R_S176R. Nature of the assay: SMCA co-expression, LC-MS; competing light chain m16; estimated change (***).
The target is the same in assay [2]. Description: SMCA co-expression, LC-MS; competing light chain m24.
The target in assay [3] is D3H44 light chain Q124E_Q160E_T178E. Nature of the assay: SMCA: four chains co-expressed in CHO-3E7, protein A, LC-MS; competing light chain m35.
The target of assay [4] is Cetuximab light chain Q124R_V133A_S176T_T178R. Description: SMCA co-expression, LC-MS; competing light chain m12; estimated change (***).
For assay [5] the target is unchanged. Description: SMCA co-expression, LC-MS; competing light chain m12.
Assay [6] addresses D3H44 light chain Q38R_Q124R_Q160K_T178R. Nature of the assay: SMCA: four chains co-expressed in CHO-3E7, protein A, LC-MS; competing light chain m41.
Assay [7] deals with D3H44 light chain F116A_Q124R_L135V_T178R. Description: SMCA: 2 heavy + 2 light chains co-expressed, protein A, LC-MS; competing light chain m41.
The target is the same in assay [8]. Nature of the assay: SMCA, LC-MS of 4 co-expressed chains; competing light chain m29.
The target is the same in assay [9]. Nature of the assay: SMCA, LC-MS; change vs wild-type bispecific; competing light chain m45.
For assay [10] the target is unchanged. Nature of the assay: SMCA, LC-MS; change vs wild-type bispecific; competing light chain m29.
Assay [11] addresses tissue factor (TF) antigen (UniProt P13726). Description: SPR (ProteOn XPR36), Fab captured by His tag on anti-penta-His surface, TF injected as analyte, 1:1 fit; * = estimated from a Fab differing only in the L chain tag.
Assay [12] has the same target. Nature of the assay: SPR (ProteOn XPR36), Fab captured by His tag on anti-penta-His surface, TF injected as analyte; against wild-type D3H44 Fab; * = estimated from a Fab differing only in the L chain tag.
The target of assay [13] is trastuzumab light chain of SMCA design 9820-9823_1 (trastuzumab/cetuximab bispecific system), Q38E_Q124E_Q160E_T180E. Nature of the assay: SMCA, LC-MS after co-expression of the four chains; difference from the wild-type trastuzumab/cetuximab construct at the same DNA ratio.
Assay [14] shares this target.
For assay [15], the target named is D3H44 light chain Q124R_T178R. Nature of the assay: SMCA, LC-MS of 4 co-expressed chains; competing light chain m27.
Assay [16] addresses D3H44 light chain Q124R_T178R. Description: SMCA: LC-MS of protein A purified product after co-expression of H1, H2, L1, L2 in CHO-3E7; competing light chain m51.
Assay [17] addresses D3H44 light chain Q124R_T178R. Nature of the assay: SMCA, LC-MS; change vs wild-type bispecific; competing light chain m27.
Assay [18] has as its target D3H44 light chain S131E. Nature of the assay: SMCA: LC-MS of protein A purified product after co-expression of H1, H2, L1, L2 in CHO-3E7; competing light chain m53.
Assay [19] addresses D3H44 light chain Q124E_Q160E_T178E. Description: SMCA, LC-MS of 4 co-expressed chains; competing light chain m42.
Assay [20] has the same target. Description: SMCA, LC-MS of 4 co-expressed chains; competing light chain m26.
The target of assay [21] is D3H44 light chain Q124E_S176L_T180E. The description is as above.
Assay [22] deals with D3H44 light chain Q124E_Q160E_T178E. Description: SMCA, LC-MS; change vs wild-type bispecific; competing light chain m42.
Assay [23] shares this target. Description: SMCA: LC-MS of protein A purified product after co-expression of H1, H2, L1, L2 in CHO-3E7; competing light chain m52.
Assay [24] addresses D3H44 light chain Q124E_S131T_T178Y_T180E. The description is as above.
Assay [25] deals with D3H44 light chain Q124E_S176L_T180E. Description: SMCA: 2 heavy + 2 light chains co-expressed, protein A, LC-MS; competing light chain m16.
For assay [26], the target named is D3H44 light chain Q124E_Q160E_T178E. Description: SMCA, LC-MS; estimated change vs similar wild type (***); competing light chain m26.
Assay [27] concerns the target D3H44 light chain Q124E_S176L_T180E. Nature of the assay: SMCA, LC-MS; change vs wild-type bispecific; competing light chain m26.
Assay [28] addresses Trastuzumab light chain Q38R_S131K. Nature of the assay: SMCA: four chains co-expressed in CHO-3E7, protein A, LC-MS; competing light chain m26.
In assay [29] the target is D3H44 light chain Q124E_V133E. Nature of the assay: SMCA: four chains co-expressed in CHO-3E7, protein A, LC-MS; competing light chain m45.
The target in assay [30] is D3H44 light chain Q124E_V133E. Description: SMCA: four chains co-expressed in CHO-3E7, protein A, LC-MS; competing light chain m35.
Assay [31] deals with Cetuximab light chain Q124E_V133W_S176T_T178L_T180E. Description: SMCA co-expression, LC-MS; competing light chain m2.
The target in assay [32] is D3H44 light chain Q124R_V133A_S176T_T178R. Nature of the assay: SMCA co-expression, LC-MS; competing light chain m8.
Assay [33] has the same target. Description: SMCA co-expression, LC-MS; competing light chain m12.
The target of assay [34] is D3H44 light chain F116A_V133G_L135V_S176R. Nature of the assay: SMCA co-expression, LC-MS; competing light chain m32.
For assay [35] the target is unchanged. Nature of the assay: SMCA co-expression, LC-MS; competing light chain m32; estimated change (***).
The target is the same in assay [36]. Description: SMCA: 2 heavy + 2 light chains co-expressed, protein A, LC-MS; competing light chain m58.
Assay [37] has the same target. Description: SMCA co-expression, LC-MS; competing light chain m36.
For assay [38] the target is unchanged. Nature of the assay: SMCA co-expression, LC-MS; competing light chain m36; estimated change (***).
Assay [39] addresses Trastuzumab light chain Q38E_Q124E_Q160E_T180E. Description: SMCA: four chains co-expressed in CHO-3E7, protein A, LC-MS; competing light chain m39.
Assay [40] concerns the target Cetuximab light chain F116A_V133G_L135V_S176R. Nature of the assay: SMCA co-expression, LC-MS; competing light chain m36.
For assay [41] the target is unchanged. Description: SMCA co-expression, LC-MS; competing light chain m36; estimated change (***).
The target in assay [42] is cetuximab light chain of SMCA design 9820-9823_1 (trastuzumab/cetuximab bispecific system), Q38R_Q124R_Q160K_T178R. Nature of the assay: SMCA: H1, H2, L1 and L2 co-expressed in CHO-3E7 cells, protein A purification, deglycosylation, LC-MS; competing light chain is the trastuzumab light chain (L1).
For assay [43] the target is unchanged. Description: SMCA, LC-MS after co-expression of the four chains; difference from the wild-type trastuzumab/cetuximab construct at the same DNA ratio.

In the case of Cetuximab heavy chain L124E_H172T, the Change in % H2L2 Pairing (over all H2 species) with respect to wild type in [1] was 1.6%; in assay [2], 14.4%. The % H2L2 Pairing (over all H2 species) in assay [2] came to 44%.

Substance “D3H44 full-length heavy chain S186K (from UniProt P0DOX5 2-448)” had a % H1L1 Pairing (over all H1 species) in assay [3] of 98.2%.

“Cetuximab heavy chain L124W_L143E_K145T_Q179E”: in assay [4], the Change in % H2L2 Pairing (over all H2 species) with respect to wild type was 33%. In addition, the % H2L2 Pairing (over all H2 species) in assay [5] was 58.1%.

Substance “D3H44 full-length heavy chain Q39E_L143E_K145T_Q179E (from UniProt P0DOX5 2-448)” displayed a % H1L1 Pairing (over all H1 species) in assay [6] of 86.6%.

For the substance “D3H44 heavy chain A139W_L143E_K145T_Q179E (from UniProt P0DOX5 2-448)”, the % H1L1 Pairing (over all H1 species) in [7] and in assay [8] was 100% throughout. Besides, the figures for the Change in % H1L1 Pairing (over all H1 species) with respect to wild type in assay [9] and in assay [10] were 58.1% and 41.9%, respectively.

Take “D3H44 H1L1 Fab heterodimer of LCCA Set # 9645 (H1 L143E_K145T_Q179E, L1 Q124K_T178R)”: the Kd (commonly the free concentration of one partner at which half of the binding sites on the other are occupied at equilibrium, for simple one-to-one binding) in assay [11] is 0.14 nM. Further, the change in median KD compared to wild type, -(log(KD design)-log(KD wt)) in [12] is 0.05 log.

“trastuzumab full-length heavy chain of SMCA design 9820-9823_1 (trastuzumab/cetuximab bispecific system), Q39R_H172R_Q179K (from UniProt P0DOX5 2-448)”: the Change in % H1L1 Pairing (over all H1 species) with respect to wild type in assay [13] was 6%. Also, in assay [14], the % H1L1 Pairing (over all H1 species) stood at 100%.

For the substance “D3H44 heavy chain L143E_K145T_Q179E_S188L (from UniProt P0DOX5 2-448)”, the % H1L1 Pairing (over all H1 species) in [15] and in assay [16] was 94.3% in each case. In addition, in assay [17], the Change in % H1L1 Pairing (over all H1 species) with respect to wild type worked out at 32.4%.

For “D3H44 heavy chain S186K (from UniProt P0DOX5 2-448)”, the % H1L1 Pairing (over all H1 species) in [18] came out at 100%; in assay [19], 98.2%; in assay [20] it was 100%; in [21], 100%; in assay [23], 100%; in [24], 100%. Moreover, in [25], the % H1L1 Pairing (over all H1 species) stood at 100%. Besides, the Change in % H1L1 Pairing (over all H1 species) with respect to wild type in [22] was 60.9%; in assay [26] it was 43.3%; in assay [27], 52.5%.

“Trastuzumab full-length heavy chain Q39E_K145T_Q179E (from UniProt P0DOX5 2-448)”: the % H2L2 Pairing (over all H2 species) in assay [28] amounted to 94.3%.

For “D3H44 full-length heavy chain L143R (from UniProt P0DOX5 2-448)”, the figures for the % H1L1 Pairing (over all H1 species) in assay [29] and in [30] were 89.2% and 97.1%, respectively.

Cetuximab heavy chain L124A_L143F_Q179K gave a Change in % H2L2 Pairing (over all H2 species) with respect to wild type in [31] of 1.7%.

As for “D3H44 heavy chain L124W_L143E_K145T_Q179E (from UniProt P0DOX5 2-448)”, the figures for the Change in % H1L1 Pairing (over all H1 species) with respect to wild type in assay [32] and in [33] were 40.4% and 7.1%, respectively. Besides, the % H1L1 Pairing (over all H1 species) in assay [33] came out at 47.7%.

Regarding “D3H44 heavy chain L124E_A139W (from UniProt P0DOX5 2-448)”, the % H1L1 Pairing (over all H1 species) was 100% in assay [34], 100% in assay [36] and 46.8% in assay [37]. Also, the Change in % H1L1 Pairing (over all H1 species) with respect to wild type in assay [35] is 43.3%; in [38] it was 25.8%.

In turn, “Trastuzumab full-length heavy chain Q39R_H172R_Q179K (from UniProt P0DOX5 2-448)” had a % H2L2 Pairing (over all H2 species) in assay [39] of 100%.

In [40], Cetuximab heavy chain L124E_A139W gave a % H2L2 Pairing (over all H2 species) of 42.1%. In assay [41], the Change in % H2L2 Pairing (over all H2 species) with respect to wild type is 17%.

“cetuximab full-length heavy chain of SMCA design 9820-9823_1 (trastuzumab/cetuximab bispecific system), Q39E_L143E_K145T_Q179E” came in with a % H2L2 Pairing (over all H2 species) in assay [42] of 52.3%. Besides, in assay [43], the Change in % H2L2 Pairing (over all H2 species) with respect to wild type worked out at 22.7%.
